According to US20200138960A1 (KUNSHAN XINYUNDA BIOTECH, published 2020):
Changes are numbered by the printed parent chain.

B1: N-loop (designed binder)
chain: MSSQIRQNYHQDSEAAVNRQINLYLQASYTYLSLGFYFDRDDVALEGVSHFFRELAEEKREGYERLLKMQNQRGGRIFLQDIKKPDCDEWGKTPDAMKAAMALEKKLNQALLDLHKLATDKNDPHLCDFLETHFLDEEVKLIKKMGDHLTNLHRLGGPEAGLGEYLFERLTLKHD
notes: expressed in E. coli from PET22b; Purity of target protein 77.1%; also called N-loop modified protein
B2: N terminal (designed binder)
chain: B1 chain with D86A, C87E
B3: C-loop (designed binder)
chain: MSSQIRQNYSTDVEAAVNSLVNLYLQASYTYLSLGFYFDRDDVALEGVSHFFRELAEEKREGYERLLKMQNQRGGRALFQDIKKPDCDEWESGLNAMECALHLEKKLNQALLDLHALGSARTDPHLCDFLETHFLDEEVKLIKKMGDHLTNLRKMGAPEAGLGEYLFERLTLKHD
B4: C terminal (designed binder)
chain: B3 chain with D86A, C87E
B5: NC-loop (designed binder)
chain: MSSQIRQNYHQDSEAAVNRQINLYLQASYTYLSLGFYFDRDDVALEGVSHFFRELAEEKREGYERLLKMQNQRGGRIFLQDIKKPDCDEWESGLNAMECALHLEKKLNQALLDLHKLATDKNDPHLCDFLETHFLDEEVKLIKKMGDHLTNLRKMGAPEAGLGEYLFERLTLKHD
B6: NC fusion (designed binder)
chain: B5 chain with D86A, C87E
B7: chimeric human H-ferritin (designed binder)
chain: MTSQVRQNYHQDSEAAINRQINLELYASYVYLSMSYYFDRDDVALEGVSHFFRELAEEKREGYERLLKMQNQRGGRIFLQDIKKPDCDDWESGLNAMECALHLEKNVNQSLLELHKLATDKNDPHLCDFLETHFLDEEVKLIKKMGDHVTNLRKMGAPESGLAEYLFERLTLKHD
notes: FITC-labelled in the cell assays; also called chimeric human H-ferritins

Tests used:
[1] = biological target: T1, TfR1 (human, Sino Biological Inc.) (human, UniProt P02786 89-760); assay: ELISA value converted by purity of target protein
T1 construct: Bought protein; the catalogue number printed for it (11020-MM02) is the same as that printed for the anti-TfR1 primary antibody, so the construct cannot be told; also called TfFR1; receptor TfR1

[2] = biological target: T1, TfR1 (human, Sino Biological Inc.); assay: ELISA, protein coated at 20 ug/mL, 2 ug/mL TfR1, anti-TfR1 detection
[3] = biological target: T2, human Transferrin Receptor 1 (TfR1) on cells (human, UniProt P02786 1-760); assay: flow cytometry on hCMEC/D3 cells according to Example 1b
T2 construct: whole, on cells; Endogenous receptor on human cell lines; also called receptor TfR1 on hCMEC/D3 cells; TfR1 on U87-MG cells
T2 sequence (P02786 whole entry): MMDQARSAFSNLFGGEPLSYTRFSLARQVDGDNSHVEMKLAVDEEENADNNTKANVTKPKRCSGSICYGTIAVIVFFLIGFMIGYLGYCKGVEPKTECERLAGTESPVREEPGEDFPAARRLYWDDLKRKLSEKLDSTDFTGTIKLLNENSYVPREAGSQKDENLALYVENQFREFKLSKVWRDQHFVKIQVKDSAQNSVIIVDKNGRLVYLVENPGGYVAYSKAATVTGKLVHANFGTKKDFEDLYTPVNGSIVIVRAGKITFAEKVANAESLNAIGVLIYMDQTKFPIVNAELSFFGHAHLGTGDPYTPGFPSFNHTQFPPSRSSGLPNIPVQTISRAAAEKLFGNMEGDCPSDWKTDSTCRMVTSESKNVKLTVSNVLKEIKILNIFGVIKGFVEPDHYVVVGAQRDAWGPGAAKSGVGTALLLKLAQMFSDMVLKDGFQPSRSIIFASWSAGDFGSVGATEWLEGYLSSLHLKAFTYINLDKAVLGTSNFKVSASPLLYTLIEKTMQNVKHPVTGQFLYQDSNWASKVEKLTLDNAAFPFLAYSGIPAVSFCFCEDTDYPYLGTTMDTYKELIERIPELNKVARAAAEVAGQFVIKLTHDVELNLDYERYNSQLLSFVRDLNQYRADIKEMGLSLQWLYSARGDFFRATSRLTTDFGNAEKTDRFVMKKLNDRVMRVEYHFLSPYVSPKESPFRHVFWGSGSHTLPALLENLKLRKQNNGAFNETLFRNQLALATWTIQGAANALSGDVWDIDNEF

T1 sequence (P02786 89-760 limits assumed): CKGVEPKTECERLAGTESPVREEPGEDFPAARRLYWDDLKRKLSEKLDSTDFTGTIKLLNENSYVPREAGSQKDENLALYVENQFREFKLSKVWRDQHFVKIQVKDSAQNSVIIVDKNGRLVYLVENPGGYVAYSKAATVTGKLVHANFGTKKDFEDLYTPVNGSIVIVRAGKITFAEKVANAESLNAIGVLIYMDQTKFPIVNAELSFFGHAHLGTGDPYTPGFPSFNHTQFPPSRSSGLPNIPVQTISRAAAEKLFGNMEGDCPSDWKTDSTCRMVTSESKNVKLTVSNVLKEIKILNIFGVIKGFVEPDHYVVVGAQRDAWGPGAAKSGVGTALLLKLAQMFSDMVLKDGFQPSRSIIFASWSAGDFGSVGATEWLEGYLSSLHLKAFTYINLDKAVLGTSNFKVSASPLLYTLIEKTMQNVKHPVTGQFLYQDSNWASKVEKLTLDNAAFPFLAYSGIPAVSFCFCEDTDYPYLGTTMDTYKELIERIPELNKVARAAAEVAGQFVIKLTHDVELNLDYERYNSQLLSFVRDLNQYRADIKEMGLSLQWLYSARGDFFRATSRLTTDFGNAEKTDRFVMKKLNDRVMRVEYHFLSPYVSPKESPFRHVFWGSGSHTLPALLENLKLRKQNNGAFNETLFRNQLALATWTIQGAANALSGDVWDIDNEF

Binder	Converted ELISA value [1]	ELISA value [2] [OD630]	binding result [3]
B1	1.52	1.17	–
B2	1.3	0.88	–
B3	0.71	0.31	–
B4	0.17	0.1	–
B5	2.02	1.23	–
B6	1.14	1.03	–
B7	–	–	binds
